Results published in US20180305450A1 (AstraZeneca / MedImmune, published 2018).

T1: recombinant biotinylated rat PAR2 extracellular residues 1-75, N-terminal AviTag, C-terminal Flag and poly … (rat, UniProt Q63645 26-75, not fully specified; biotin on the AviTag (enzymatic biotinylation))
T1 construct: range 1-75; not shown: N-terminal AviTag (Avidity LLC); C-terminal Flag and poly Histidine tags
T1 chain (looked up): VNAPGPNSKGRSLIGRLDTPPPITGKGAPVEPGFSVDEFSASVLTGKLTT


Legend:
[1] = biological target: T2, recombinant biotinylated human PAR2 extracellular domain (residues 1-75), N-terminal AviTag, C-terminal Flag … (human, UniProt P55085 26-75, biotin on the AviTag (enzymatic biotinylation)); assay: Biacore SPR 25 C, pH 6.0
T2 construct: also called Bio-human-PAR2 ECD; human PAR2 ECD; not shown: N-terminal AviTag (Avidity LLC); C-terminal Flag and poly Histidine tags
T2 sequence (P55085 26-75): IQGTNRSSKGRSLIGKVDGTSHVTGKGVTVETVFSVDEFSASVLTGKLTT
Method: (§1) The experiments were carried out using recombinant human, rat and cynomolgus PAR2 with an N-terminal Avi tag and C-terminal Flag-His tags.
(§2) Streptavidin was covalently immobilised to a C1 chip surface using standard amine coupling techniques at a concentration of 4 μg/ml in 10 mM Sodium acetate pH 4.5. A final streptavidin surface of approximately 30-100 RUs was achieved. Recombinant biotinylated PAR2 species (produced in-house) were titrated onto the streptavidin chip surface at 4 μg/ml in HBS-EP+ buffer to enable Fab binding at saturation (Rₘₐₓ). This low level of analyte binding ensured minimal mass transport effects.
(§3) The anti-PAR2 Fabs were serially diluted (0.39 nM-25 nM) in HBS-EP+ buffer pH 7.4 or MES-BS-EP+ pH 6.0 buffer or in MES-BS-EP+ pH 5.6 buffer and flowed over the chip at 50 μl/min, with 3 minutes association and up to 30 minutes dissociation. Multiple buffer-only injections were made under the same conditions to allow for double reference subtraction of the final sensorgram sets, which were analysed using the BiaEval software (version 2.0.1). The chip surface was fully regenerated with pulses of 4 M MgCl₂.

[2] = biological target: T1, recombinant biotinylated rat PAR2 …; assay: Biacore SPR 25 C, pH 6.0
Method: as §1, §2, §3

[3] = biological target: T2, recombinant biotinylated human PAR2 …; assay: Biacore SPR 25 C, pH 7.4
Method: as §1, §2, §3

[4] = biological target: T1, recombinant biotinylated rat PAR2 …; assay: Biacore SPR 25 C, pH 7.4
Method: as §1, §2, §3

Binder | Kd [1] [nM] | koff [1] [s⁻¹] | kon [1] [M⁻¹ s⁻¹] | Kd [2] [nM] | koff [2] [s⁻¹] | kon [2] [M⁻¹ s⁻¹] | Kd [3] [nM] | koff [3] [s⁻¹] | kon [3] [M⁻¹ s⁻¹] | Kd [4] [nM] | koff [4] [s⁻¹] | kon [4] [M⁻¹ s⁻¹]
PaB670120 Fab (Fab, V domains shown, Fab; also called ZZ1RUC-C11) VH: EVQLLESGGGLVQPGGSLRLSCAASGFTFSSYAMNWVRQAPGKGLEWVSTISYHGHHISYADSHHHRFTISRDNSKNTLYLQMNSLRAEDTAVYYCARINHDPMDVWGQGTLVTVSS VL: SIELTQPPSVSVSPGQTASITCSGDNLGKKYVQWYQQKPGQSPVLVIYDDSNRPSGIPERFSGSNSGNTATLTISGTQAMDEADYYCQTWDGNPTTGETNVFGGGTKLTVL | 6.05 | 0.021 | 3.48e+06 | 34 | 0.281 | 8.26e+06 | 0.247 | 0.00137 | 5.54e+06 | 2.61 | 0.0146 | 5.62e+06
Par0067 Fab (Fab, V domains shown, Fab; also called ZZ15D2-D02) VH: EVQLLESGGGLVQPGGSLRLSCAASGFTFSSYAMNWVRQAPGKGLEWVSTISYSGSLISYADSVKGRFTISRDNSKNTLYLQMNSLRAEDTAVYYCARINNDPMDVWGQGTLVTVSS VL: SIELTQPPSVSVSPGQTASITCSGDNLGKKYVQWYQQKPGQSPVLVIYDDSNRPSGIPERFSGSNSGNTATLTISGTQAMDEADYYCQTWDGNPTTGETNVFGGGTKLTVL | 0.0312 | 9.72e-05 | 3.12e+06 | 0.17 | 0.000544 | 3.21e+06 | 0.0075 | 4.96e-05 | 6.66e+06 | 0.0376 | 0.000194 | 5.16e+06

Other lines, results leading:

Kd [1] [nM] | koff [1] [s⁻¹] | kon [1] [M⁻¹ s⁻¹] | Kd [2] [nM] | koff [2] [s⁻¹] | kon [2] [M⁻¹ s⁻¹] | Kd [3] [nM] | koff [3] [s⁻¹] | kon [3] [M⁻¹ s⁻¹] | Kd [4] [nM] | koff [4] [s⁻¹] | kon [4] [M⁻¹ s⁻¹] | Binder
20.1 | 0.0457 | 2.22e+06 | 38.5 | 0.0689 | 1.79e+06 | 0.613 | 0.00365 | 5.95e+06 | 3.02 | 0.0196 | 6.49e+06 | PaB670128 Fab (Fab, V domains shown, Fab; also called ZZ1RUE-A01) VH: EVQLLESGGGLVQPGGSLRLSCAASGFTFSSYAMNWVRQAPGKGLEWVSTISYHGHHISYADSHHHRFTISRDNSKNTLYLQMNSLRAEDTAVYYCARIHHDPMDVWGQGTLVTVSS VL: SIELTQPPSVSVSPGQTASITCSGDNLGKKYVQWYQQKPGQSPVLVIYDDSNRPSGIPERFSGSNSGNTATLTISGTQAMDEADYYCQTWDGNPTTGETNVFGGGTKLTVL
4.61 | 0.00514 | 1.11e+06 | 30.7 | 0.051 | 1.66e+06 | 0.207 | 0.00121 | 5.84e+06 | 1.69 | 0.0107 | 6.34e+06 | PaB670076 Fab (Fab, V domains shown, Fab; also called ZZ1NHH-F09) VH: EVQLLESGGGLVQPGGSLRLSCAASGFTFSSYAMNWVRQAPGKGLEWVSTISYSGSLISYADSVKGRFTISRDNSKNTLYLQMNSLRAEDTAVYYCARINNDPMDVWGQGTLVTVSS VL: SIELTQPPSVSVSPGQTASITCSGDNLGKKYVQWYQQKPGQSPVLVIYDDSNRPSGIPERFSGSNSGNTATLTISGTQAMDEADYYCHTWDHHHTTGEHNVFGGGTKLTVL
4.41 | 0.00763 | 1.73e+06 | 10.8 | 0.0277 | 2.57e+06 | 0.25 | 0.00162 | 6.49e+06 | 1.23 | 0.00837 | 6.83e+06 | PaB670084 Fab (Fab, V domains shown, Fab; also called ZZ1PXA-A05) VH: EVQLLESGGGLVQPGGSLRLSCAASGFTFSSYAMNWVRQAPGKGLEWVSTISHSGHLIHHADSHKGRFTISRDNSKNTLYLQMNSLRAEDTAVYYCARINNDPMDVWGQGTLVTVSS VL: SIELTQPPSVSVSPGQTASITCSGDNLGKKYVQWYQQKPGQSPVLVIYDDSNRPSGIPERFSGSNSGNTATLTISGTQAMDEADYYCQTWDGNPTTGETNVFGGGTKLTVL
